Assay results from US20150376619, “APTAMERS THAT BIND CD271” (VIVONICS, INC., published 2015).

Molecular target: T1, CD271 (NGFR, p75NTR)/Fc chimera (Homo sapiens, UniProt P08138 P08138:29-250)
T1 chain: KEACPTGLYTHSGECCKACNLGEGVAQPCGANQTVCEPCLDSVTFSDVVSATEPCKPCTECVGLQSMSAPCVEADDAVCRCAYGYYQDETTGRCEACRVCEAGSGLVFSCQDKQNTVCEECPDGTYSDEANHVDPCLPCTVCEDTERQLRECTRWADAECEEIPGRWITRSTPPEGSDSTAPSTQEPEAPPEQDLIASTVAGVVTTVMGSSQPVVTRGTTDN
Test: size exclusion HPLC, 0.01 M PBS pH 7.4, room temperature, aptamer to protein 5:1; complex elutes at 21.2 min
Settings: tags: human IgG1 Fc chimera, Sigma-Aldrich N8898 (lyophilized with PBS salts and BSA); chain copies: 2; label: biotin

B1: 1391-Motif (ssDNA)
DNA: TACGACTCACTATAGGGATCCAAGAAAGAAAAAGGAGAAAGGGGGGGGGGAATTCCCTTTAGTGAGGGTT
modifications: biotinylated for SPR
  binding result: binds
